From publication PMC10718521, “Complexity of αvβ6-integrin targeting RGD peptide trimers: emergence of non-specific binding by synergistic interaction” (RSC Medicinal Chemistry, 2023)

Tests used:
[1] = assay type: physicochemical; conditions: pH 7.4
Description: The trimers were labeled with ^68Ga for biodistribution and small-animal PET experiments employing a fully automated method.[39] Non-radioactive reference compounds were obtained by complexation of equimolar amounts of ^natGa^3+ in form of the aq. chloride solution.[39] The polarity of the ^68Ga or ^natGa^3+ containing conjugates, respectively, was assessed by two established proxies, namely the n-octanol/water distribution coefficient at pH 7.4, log D7.4, and the retention time tR on a reverse-phase HPLC column with a suitable liquid-phase gradient (10–50% acetonitrile in water with 0.1% trifluoroacetic acid) (see Fig. 2a). […] A measurable decrease of the log D7.4 was only observed for ≥3 Tyr. […]
(§1) Unless otherwise noted, the materials and the instrumentation used (analytical and preparative HPLC, ESI-MS, gamma counter, centrifuge), and the experimental procedures (^68Ga radiolabeling and radio-TLC for quality control, determination of log D7.4, cultivation of H2009 human lung adenocarcinoma cells, generation of tumor xenografts in CB17 SCID mice, small-animal PET, and biodistribution) were described before.[19] All animal experiments have been carried out according to applicable law and institutional guidelines of Technical University of Munich, and were approved by the responsible local authority (Regierung von Oberbayern). The H2009 cells were regularly authenticated and tested for mycoplasma contamination. The affinities of the pentynoic amide functionalized peptides were determined employing a well-established ELISA protocol on immobilized integrins.[36] TRAP-triazide,[38]FF (previously termed AvB6),[32] and YY (also referred to as Tyr2-alkyne)[33] were synthesized as described previously. RP-HPLC for assessment of compound polarity was done on a 150 × 4.6 mm ReproSil-Pur 120 C18-AQ 5 μm column, with a flow of 0.75 mL min^−1 and a gradient of 10–50% MeCN in water, both containing 0.1% trifluoroacetic acid, within 15 min. The required ^natGa-complexes of the peptide trimers were synthesized by reaction with equimolar amounts of aq. GaCl3 as described.[19]

[2] = in vivo; set-up: species or system mice; conditions: CB17 SCID, mouse, total radioactivity
Text: The biodistribution of all ^68Ga-labeled peptide trimers was investigated in severe combined immunodeficiency (SCID) mice bearing subcutaneous xenografts of the αvβ6-integrin expressing human lung adenocarcinoma cell line H2009 on their right shoulders.
as §1

[3] = tumor/organ ratio Heart (myocard)
[4] = tumor/organ ratio Large intestine (empty)
[5] = tumor/organ ratio Small intestine (empty)
[6] = tumor/organ ratio Stomach (empty)

SMILES	logD [1]	tissue uptake at 1.5 h ([2]; Adrenals uptake) [%ID/g]	tissue uptake at 1.5 h ([2]; Blood uptake) [%ID/g]	tissue uptake at 1.5 h ([2]; Heart (myocard) uptake) [%ID/g]	tissue uptake at 1.5 h ([2]; Kidneys uptake) [%ID/g]	tissue uptake at 1.5 h ([2]; Large intestine (empty) uptake) [%ID/g]	tissue uptake at 1.5 h ([2]; Liver uptake) [%ID/g]	tissue uptake at 1.5 h ([2]; Lung uptake) [%ID/g]	tissue uptake at 1.5 h ([2]; Muscle uptake) [%ID/g]	tissue uptake at 1.5 h ([2]; Pancreas uptake) [%ID/g]	tissue uptake at 1.5 h ([2]; Small intestine (empty) uptake) [%ID/g]	tissue uptake at 1.5 h ([2]; Spleen uptake) [%ID/g]	tissue uptake at 1.5 h ([2]; Stomach (empty) uptake) [%ID/g]	tissue uptake at 1.5 h ([2]; Tumor H2009 uptake) [%ID/g]	tissue to tissue ratio at 1.5 h ([2]; tumor/organ ratio Adrenals)	tissue to tissue ratio at 1.5 h ([2]; tumor/organ ratio Blood)	tissue to tissue ratio at 1.5 h [2, 3]	tissue to tissue ratio at 1.5 h ([2]; tumor/organ ratio Kidneys)	tissue to tissue ratio at 1.5 h [2, 4]	tissue to tissue ratio at 1.5 h ([2]; tumor/organ ratio Liver)	further results
CC(C)C[C@@H]1NC(=O)[C@H](CC(=O)O)NC(=O)CNC(=O)[C@H](CCCNC(=N)N)NC(=O)[C@H](Cc2ccccc2)NC(=O)[C@H](CCCCNC(=O)CCc2cn(CCCNC(=O)CCP(=O)(O)CN3CCN(CP(=O)(O)CCC(=O)NCCCn4cc(CCC(=O)NCCCC[C@H]5C(=O)N[C@@H](Cc6ccc(O)cc6)C(=O)N[C@@H](CCCNC(=N)N)C(=O)NCC(=O)N[C@@H](CC(=O)O)C(=O)N[C@@H](CC(C)C)C(=O)N[C@@H](C)C(=O)N[C@@H](Cc6ccccc6)C(=O)N6CCC[C@@H]6C(=O)N5C)nn4)CCN(CP(=O)(O)CCC(=O)NCCCn4cc(CCC(=O)NCCCC[C@H]5C(=O)N[C@@H](Cc6ccc(O)cc6)C(=O)N[C@@H](CCCNC(=N)N)C(=O)NCC(=O)N[C@@H](CC(=O)O)C(=O)N[C@@H](CC(C)C)C(=O)N[C@@H](C)C(=O)N[C@@H](Cc6ccccc6)C(=O)N6CCC[C@@H]6C(=O)N5C)nn4)CC3)nn2)N(C)C(=O)[C@H]2CCCN2C(=O)[C@H](Cc2ccccc2)NC(=O)[C@H](C)NC1=O (68Ga complex, metal not drawn) [Y2Y]	-1.5 ± 0.1	1.07 ± 0.27	1.91 ± 0.49	0.85 ± 0.16	80.8 ± 5.12	3.89 ± 0.73	2.59 ± 0.35	7.02 ± 1.34	0.63 ± 0.12	0.44 ± 0.07	2.23 ± 0.41	4.36 ± 0.79	6.55 ± 1.48	7.93 ± 0.28	7.8 ± 1.7	4.4 ± 1.1	9.6 ± 1.8	0.1	2.1 ± 0.4	3.1 ± 0.3	log D7.4 [1]: −1.4 to −1.5; tissue to tissue ratio at 1.5 h ([2]; tumor/organ ratio Lung): 1.2 ± 0.2; tissue to tissue ratio at 1.5 h ([2]; tumor/organ ratio Muscle): 13 ± 2.5; tissue to tissue ratio at 1.5 h ([2]; tumor/organ ratio Pancreas): 18.2 ± 2.3; tissue to tissue ratio at 1.5 h [2, 5]: 3.6 ± 0.7; tissue to tissue ratio at 1.5 h ([2]; tumor/organ ratio Spleen): 1.9 ± 0.4; tissue to tissue ratio at 1.5 h [2, 6]: 1.3 ± 0.3
CC(C)C[C@@H]1NC(=O)[C@H](CC(=O)O)NC(=O)CNC(=O)[C@H](CCCNC(=N)N)NC(=O)[C@H](Cc2ccccc2)NC(=O)[C@H](CCCCNC(=O)CCc2cn(CCCNC(=O)CCP(=O)(O)CN3CCN(CP(=O)(O)CCC(=O)NCCCn4cc(CCC(=O)NCCCC[C@H]5C(=O)N[C@@H](Cc6ccccc6)C(=O)N[C@@H](CCCNC(=N)N)C(=O)NCC(=O)N[C@@H](CC(=O)O)C(=O)N[C@@H](CC(C)C)C(=O)N[C@@H](C)C(=O)N[C@@H](Cc6ccccc6)C(=O)N6CCC[C@@H]6C(=O)N5C)nn4)CCN(CP(=O)(O)CCC(=O)NCCCn4cc(CCC(=O)NCCCC[C@H]5C(=O)N[C@@H](Cc6ccc(O)cc6)C(=O)N[C@@H](CCCNC(=N)N)C(=O)NCC(=O)N[C@@H](CC(=O)O)C(=O)N[C@@H](CC(C)C)C(=O)N[C@@H](C)C(=O)N[C@@H](Cc6ccc(O)cc6)C(=O)N6CCC[C@@H]6C(=O)N5C)nn4)CC3)nn2)N(C)C(=O)[C@H]2CCCN2C(=O)[C@H](Cc2ccccc2)NC(=O)[C@H](C)NC1=O (68Ga complex, metal not drawn) [Y2]	-1.5 ± 0.2	1.5 ± 1.28	2.26 ± 0.26	1.08 ± 0.13	92 ± 12.2	3.81 ± 0.53	3.37 ± 0.68	4.8 ± 0.5	0.72 ± 0.15	0.65 ± 0.12	2.55 ± 0.27	2.51 ± 0.33	7.17 ± 0.58	7.95 ± 1.02	8.8 ± 6.2	3.5 ± 0.5	7.4 ± 0.6	0.1	2.1 ± 0.2	2.4 ± 0.4	log D7.4 [1]: −1.4 to −1.5; tissue to tissue ratio at 1.5 h ([2]; tumor/organ ratio Lung): 1.7 ± 0.2; tissue to tissue ratio at 1.5 h ([2]; tumor/organ ratio Muscle): 11.4 ± 2.4; tissue to tissue ratio at 1.5 h ([2]; tumor/organ ratio Pancreas): 12.7 ± 2.9; tissue to tissue ratio at 1.5 h [2, 5]: 3.1 ± 0.5; tissue to tissue ratio at 1.5 h ([2]; tumor/organ ratio Spleen): 3.2 ± 0.7; tissue to tissue ratio at 1.5 h [2, 6]: 1.1 ± 0.1
CC(C)C[C@@H]1NC(=O)[C@H](CC(=O)O)NC(=O)CNC(=O)[C@H](CCCNC(=N)N)NC(=O)[C@H](Cc2ccccc2)NC(=O)[C@H](CCCCNC(=O)CCc2cn(CCCNC(=O)CCP(=O)(O)CN3CCN(CP(=O)(O)CCC(=O)NCCCn4cc(CCC(=O)NCCCC[C@H]5C(=O)N[C@@H](Cc6ccccc6)C(=O)N[C@@H](CCCNC(=N)N)C(=O)NCC(=O)N[C@@H](CC(=O)O)C(=O)N[C@@H](CC(C)C)C(=O)N[C@@H](C)C(=O)N[C@@H](Cc6ccc(O)cc6)C(=O)N6CCC[C@@H]6C(=O)N5C)nn4)CCN(CP(=O)(O)CCC(=O)NCCCn4cc(CCC(=O)NCCCC[C@H]5C(=O)N[C@@H](Cc6ccccc6)C(=O)N[C@@H](CCCNC(=N)N)C(=O)NCC(=O)N[C@@H](CC(=O)O)C(=O)N[C@@H](CC(C)C)C(=O)N[C@@H](C)C(=O)N[C@@H](Cc6ccc(O)cc6)C(=O)N6CCC[C@@H]6C(=O)N5C)nn4)CC3)nn2)N(C)C(=O)[C@H]2CCCN2C(=O)[C@H](Cc2ccc(O)cc2)NC(=O)[C@H](C)NC1=O (68Ga complex, metal not drawn) [Y3F]	-1.8 ± 0.1	0.77 ± 0.42	0.96 ± 0.3	0.62 ± 0.15	71.1 ± 15	5.15 ± 2.63	0.95 ± 0.22	4.83 ± 1.54	0.66 ± 0.25	0.34 ± 0.11	2.6 ± 0.9	2.38 ± 0.31	5.64 ± 1.94	6.69 ± 1.21	10.3 ± 3.8	7.2 ± 1.1	10.9 ± 0.8	0.1	1.6 ± 0.7	7.1 ± 0.7	tissue to tissue ratio at 1.5 h ([2]; tumor/organ ratio Lung): 1.5 ± 0.3; tissue to tissue ratio at 1.5 h ([2]; tumor/organ ratio Muscle): 10.9 ± 3; tissue to tissue ratio at 1.5 h ([2]; tumor/organ ratio Pancreas): 20.4 ± 3.1; tissue to tissue ratio at 1.5 h [2, 5]: 2.7 ± 0.5; tissue to tissue ratio at 1.5 h ([2]; tumor/organ ratio Spleen): 2.8 ± 0.4; tissue to tissue ratio at 1.5 h [2, 6]: 1.3 ± 0.3
